Patent CN114106182A (ZHONGSHAN KANGFARE BIOLOGICAL MEDICINE CO LTD, dated 2022)

Legend:
human TIGIT-mFc [1] = biological target: T1, human TIGIT-mFc (human; mouse, UniProt Q495A1 22-141, limits assumed); assay: indirect ELISA screening of hybridomas on human TIGIT-mFc
T1 construct: Made in house (Akeso, lot 20171110); also called 人TIGIT-mFc; not shown: Fc fragment of mouse IgG (mFc)
T1 sequence (looked up): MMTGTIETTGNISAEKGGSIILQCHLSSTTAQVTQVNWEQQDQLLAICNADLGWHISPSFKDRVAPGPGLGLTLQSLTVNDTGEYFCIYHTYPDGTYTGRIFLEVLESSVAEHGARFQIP

human TIGIT-mFc [2] = biological target: T1, human TIGIT-mFc; assay: indirect ELISA, TIGIT-mFc captured by goat anti-mouse IgG Fc (Table 1 experiment)
human TIGIT-mFc [3] = biological target: T1, human TIGIT-mFc; assay: competition ELISA on coated TIGIT-mFc; competitor CD155-hFc-Biotin (Table 3 experiment)
[4] = biological target: T2, TIGIT antigen on the surface of 293T-TIGIT cells (human, UniProt Q495A1 22-244); assay: FACS competition on 293T-TIGIT cells; competitor CD112-mG1Fc (30 nM)
T2 construct: whole, on cells; also called Jurkat-TIGIT (TIGITFL)
T2 sequence (looked up): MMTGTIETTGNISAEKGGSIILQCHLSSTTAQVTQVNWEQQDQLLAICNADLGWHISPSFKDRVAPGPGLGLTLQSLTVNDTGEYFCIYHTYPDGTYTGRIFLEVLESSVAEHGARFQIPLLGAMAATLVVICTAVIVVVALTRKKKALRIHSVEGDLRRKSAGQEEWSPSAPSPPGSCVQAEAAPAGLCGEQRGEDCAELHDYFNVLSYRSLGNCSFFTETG

[5] = biological target: T2, TIGIT antigen on the surface of …; assay: FACS competition on 293T-TIGIT cells; competitor CD155-mG1Fc (10 nM)
human TIGIT-mFc [6] = biological target: T1, human TIGIT-mFc; assay: BLI (Fortebio), antibody on AHC sensor, TIGIT-mFc 0.62-50 nM, 1:1 fit, 37 degrees
human TIGIT-mFc [7] = biological target: T1, human TIGIT-mFc; assay: indirect ELISA, TIGIT-mFc captured by goat anti-mouse IgG Fc (Table 2 experiment)
[8] = biological target: T2, TIGIT antigen on the surface of …; assay: flow cytometry on 293T-TIGIT cells, FITC goat anti-human IgG
human TIGIT-mFc [9] = biological target: T1, human TIGIT-mFc; assay: competition ELISA on coated TIGIT-mFc; competitor CD155-hFc-Biotin (Table 4 experiment)

B1: 26B12 (antibody, V domains shown)
VH: EVQLQESGPGLVKPSQSLSLTCTVTGHSFTSDYAWNWIRQFPGNRLEWMGYISYSDSTNYNPSLKSRISITRDTSKNQFFLQMNSVTTEDTATYYCARLDYGNYGGAMDYWGQGTSVTVSS
VL: DIVLTQSHEFMSTSLRDRVSITCKSSQHVSTAVAWYQQKPGQSPKLLIYSASYRYTGVPDRFTGSGSGTDFTFTISSVKAEDLAVYYCQQHYITPWTFGGGTKLEIK
notes: Mouse monoclonal antibody from hybridoma; also called monoclonal antibody secreted by hybridoma LT019 (CCTCC NO: C2020208)
**Q.** Does B1 bind (human TIGIT-mFc [1])?
**A.** binds

B2: BMS 22G2 (antibody, human IgG1, kappa, V domains shown)
VH: QVQLQESGPGLVKPSETLSLTCTVSGGSVSSGIYYWSWIRQPPGKGLEWIGYIYYSGSTNYNPSLKSRVTISVDTSKNQFSLKLSSVTAADTAVYYCARDYYVSGNYYNVDYYFFGVDVWGQGTTVTVSS
VL: EIVLTQSPATLSLSPGERATLSCRASQSVSSYLAWYQQKPGQAPRLLIYDASNRATGIPARFSGSGSGTDFTLTISSLEPEDFAVYYCQQRSNWPPLFTFGPGTKVDIKR
notes: Positive control anti-TIGIT antibody
**Q.** For B2, which EC50 (human TIGIT-mFc [2]) is on record?
**A.** 17 pM

**Q.** And the EC50 (human TIGIT-mFc [3])?
**A.** 513 pM

B3: RG6058(G1DM) (antibody, human IgG1, kappa, L234A L235A, V domains shown)
VH: EVQLQQSGPGLVKPSQTLSLTCAISGDSVSSNSAAWNWIRQSPSRGLEWLGKTYYRFKWYSDYAVSVKGRITINPDTSKNQFSLQLNSVTPEDTAVFYCTRESTTYDLLAGPFDYWGQGTLVTVSS
VL: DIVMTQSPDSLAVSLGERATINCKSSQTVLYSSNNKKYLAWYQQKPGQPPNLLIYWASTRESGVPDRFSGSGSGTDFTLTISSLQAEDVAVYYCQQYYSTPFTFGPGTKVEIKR
notes: Positive control anti-TIGIT antibody (Tiragolumab variable regions, G1DM constant region)
**Q.** What does the source list for B3?
**A.** EC50 [4]: 1290 pM; EC50 [5]: 1220 pM; Kd (human TIGIT-mFc [6]): 847 pM; EC50 (human TIGIT-mFc [7]): 17 pM; EC50 [8]: 1150 pM; EC50 (human TIGIT-mFc [9]): 425 pM

B4: BMS 22G2(G1DM) (antibody, V domains shown)
VH: QVQLQESGPGLVKPSETLSLTCTVSGGSVSSGIYYWSWIRQPPGKGLEWIGYIYYSGSTNYNPSLKSRVTISVDTSKNQFSLKLSSVTAADTAVYYCARDYYVSGNYYNVDYYFFGVDVWGQGTTVTVSS
VL: EIVLTQSPATLSLSPGERATLSCRASQSVSSYLAWYQQKPGQAPRLLIYDASNRATGIPARFSGSGSGTDFTLTISSLEPEDFAVYYCQQRSNWPPLFTFGPGTKVDIK
**Q.** With B4 as the binder, how does the Kd (human TIGIT-mFc [6]) read?
**A.** 628 pM
